The values that follow come from patent publication US20120027684A1 (IMMATICS BIOTECHNOLOGIES, published 2012).

The target of the experiment is HLA A*0201 (human). Put plainly: ELISA-based peptide-HLA binding method (Sylvester-Hvid et al., 2002). For orientation: In an ELISA, binding on a coated surface is turned into a signal by an enzyme label.

As to LLGATCMFV (also called cyclin peptide CCN-001) [CCN-001], the binding result was “binds”.
